# Assay results taken from paper PMC7797033, “Single-molecule visualization of human RECQ5 interactions with single-stranded DNA recombination intermediates”.
# Key:
# [1] = biological target: Human wild-type (wt) RAD51 (human) (UniProt Q06609)
# RAD51 = RAD51 (human, UniProt Q06609 1-339); experiment: BLI; 2 mM ATP, 2 mM Mg2+; 2 uM RAD51; BLI: 25 mM Tris-HCl pH 7.5, 50 mM KCl, 2 mM MgCl2, 200 ug/mL BSA, 0.05% Tween 20, 2 mM ATP, room temperature; curtain buffer not in the material; settings: protein: recombinant; tags: none stated for BLI prep; chain copies: 10; label: 5' biotin
# Chain of RAD51 (Q06609 whole entry): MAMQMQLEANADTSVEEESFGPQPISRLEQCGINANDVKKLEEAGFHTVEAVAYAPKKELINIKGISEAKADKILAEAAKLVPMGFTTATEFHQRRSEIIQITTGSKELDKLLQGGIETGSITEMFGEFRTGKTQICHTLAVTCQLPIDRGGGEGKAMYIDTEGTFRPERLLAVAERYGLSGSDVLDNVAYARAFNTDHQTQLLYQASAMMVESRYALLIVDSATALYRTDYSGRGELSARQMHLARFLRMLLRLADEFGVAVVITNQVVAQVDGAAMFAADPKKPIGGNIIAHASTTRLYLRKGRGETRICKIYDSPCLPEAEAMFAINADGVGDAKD
# Chain of Human wild-type (wt) RAD51 (human) (Q06609 whole entry): as above
Molecule,processivity of unlabeled RECQ5–F666A on RAD51–ssDNA (ssDNA curtains) [1] [nt],translocation velocity of unlabeled RECQ5–F666A on RAD51–ssDNA (ssDNA curtains) [1] [nt/s],binding result (RAD51)
RECQ5–F666A (from UniProt O94762 1-991) (enzyme),5200,28,–
TTTTTTTTTTTTTTTTTTTTTTTTTTTTTTTTTTTTTTTTTTT (ssDNA) [dT43-mer],–,–,binds
